B1: Hairpin Ribozyme (parent)
chain: GUCCUCUUUCACGUGCGCGUGAAAGAGAGAAGUGAACCAGAGAAACACACGUUGUGGUAUAUUACCUGGUA

Variants of: B1
Test: self-cleavage, relative activity (ratio to wild type); higher = more cleavage; co-transcriptional

Compared with GUCCUCUUUCACGUGCGCGCGAAAGAGAGAAGUGAACCAGAGAAACACACGUUAUGGUAUAUUACCUGGUA [U20C G54A], GUCCUCUUUCACGUGCGCGCGAAAGAGAGAAGUGAACCAGAGAAACACACGUUUUGGUAUAUUACCUGGUA [U20C G54U] is lower in self-cleavage: 0.544 for the first, 0.386 for the second.

First: GUCCUCUUUCACGUGCGCGCGAAAGAGAGAAGUGAACCAGAGAAACACACGUUGUGAUAUAUUACCUGGUA [U20C G57A]
Second: GUCCUCUUUCACGUGCGCGCGAAAGAGAGAAGUGAACCAGAGAAACACACGUUGUGUUAUAUUACCUGGUA [U20C G57U]
The self-cleavage of the first is lower: 0.167 for the first, 0.341 for the second.

First: GUCCUCUUUCACGUGCGCGCGAAAGAGAGAAGUGAACCAGAGAAACACACGUUGUGGUAUAUUACCUAGUA [U20C G68A]
Second: GUCCUCUUUCACGUGCGCGCGAAAGAGAGAAGUGAACCAGAGAAACACACGUUGUGGUAUAUUACCUGUUA [U20C G69U]
The self-cleavage of the first is higher: 0.251 for the first, 0.23 for the second.

Compared with GUCCUCUUUCACGUGCGCGCGAAAGAGAGAAGAGAACCAGAGAAACACACGUUGUGGUAUAUUACCUGGUA [U20C U33A], GUCCUCUUUCACGUGCGCGCGAAAGAGAGAAGGGAACCAGAGAAACACACGUUGUGGUAUAUUACCUGGUA [U20C U33G] is lower in self-cleavage: 0.0957 for the first, 0.0535 for the second.

First: GUCCUCUUUCACGUGCGCGCGAAAGAGAGAAGUGAACCAGAGAAACACACGAUGUGGUAUAUUACCUGGUA [U20C U52A]
Second: GUCCUCUUUCACGUGCGCGCGAAAGAGAGAAGUGAACCAGAGAAACACACGCUGUGGUAUAUUACCUGGUA [U20C U52C]
The self-cleavage of the first is lower: 0.957 for the first, 1.03 for the second.

Going from GUCCUCUUUCACGUGCGCGCGAAAGAGAGAAGUGAACCAGAGAAACACACGGUGUGGUAUAUUACCUGGUA [U20C U52G] to GUCCUCUUUCACGUGCGCGCGAAAGAGAGAAGUGAACCAGAGAAACACACGUCGUGGUAUAUUACCUGGUA [U20C U53C], the self-cleavage falls from 1.12 to 0.998.

First: GUCCUCUUUCACGUGCGCGCGAAAGAGAGAAGUGAACCAGAGAAACACACGUUGUGGGAUAUUACCUGGUA [U20C U58G]
Second: GUCCUCUUUCACGUGCGCGCGAAAGAGAGAAGUGAACCAGAGAAACACACGUUGUGGUAGAUUACCUGGUA [U20C U60G]
The self-cleavage of the first is higher: 0.785 for the first, 0.534 for the second.

First: GUCCUCUUUCACGUGCGCGCGAAAGAGAGAAGUGAACCAGAGAAACACACGUUGUGGUAUAUAACCUGGUA [U20C U63A]
Second: GUCCUCUUUCACGUGCGCGCGAAAGAGAGAAGUGAACCAGAGAAACACACGUUGUGGUAUAUGACCUGGUA [U20C U63G]
The self-cleavage of the first is lower: 0.116 for the first, 0.169 for the second.

First: GUCCUCUUUCACGUGCGCGCGAAAGAGAGAAGUGAACCAGAGAAACACACGUUGUGGUAUAUUACCAGGUA [U20C U67A]
Second: GUCCUCUUUCACGUGCGCGCGAAAGAGAGAAGUGAACCAGAGAAACACACGUUGUGGUAUAUUACCUGGAA [U20C U70A]
The self-cleavage of the first is lower: 0.213 for the first, 1.08 for the second.

First: GUCCUCUUUCACGUGCGCGCGAAAGAGAGAAGUGAACCAGAGAAACACACGUUGUGGUAUAUUACCUGGCA [U20C U70C]
Second: GUCCUCUUUCACGUGCGCGGGAAAGAGAGAAGUGAACCAGAGAAACACACGUUGUGGUAUAUUACCUGGUA [U20G]
The self-cleavage of the first is higher: 0.945 for the first, 0.879 for the second.

First: GUCCUCUUUCACGUGCGCGGGACAGAGAGAAGUGAACCAGAGAAACACACGUUGUGGUAUAUUACCUGGUA [U20G A23C]
Second: GUCCUCUUUCACGUGCGCGGGAAGGAGAGAAGUGAACCAGAGAAACACACGUUGUGGUAUAUUACCUGGUA [U20G A24G]
The self-cleavage of the first is higher: 0.83 for the first, 0.673 for the second.

Compared with GUCCUCUUUCACGUGCGCGGGAAAGUGAGAAGUGAACCAGAGAAACACACGUUGUGGUAUAUUACCUGGUA [U20G A26U], GUCCUCUUUCACGUGCGCGGGAAAGAGCGAAGUGAACCAGAGAAACACACGUUGUGGUAUAUUACCUGGUA [U20G A28C] is lower in self-cleavage: 0.683 for the first, 0.462 for the second.

Going from GUCCUCUUUCACGUGCGCGGGAAAGAGGGAAGUGAACCAGAGAAACACACGUUGUGGUAUAUUACCUGGUA [U20G A28G] to GUCCUCUUUCACGUGCGCGGGAAAGAGAGAAGUGGACCAGAGAAACACACGUUGUGGUAUAUUACCUGGUA [U20G A35G], the self-cleavage falls from 1.01 to 0.559.

Compared with GUCCUCUUUCACGUGCGCGGGAAAGAGAGAAGUGUACCAGAGAAACACACGUUGUGGUAUAUUACCUGGUA [U20G A35U], GUCCUCUUUCACGUGCGCGGGAAAGAGAGAAGUGAGCCAGAGAAACACACGUUGUGGUAUAUUACCUGGUA [U20G A36G] is lower in self-cleavage: 0.581 for the first, 0.569 for the second.

First: GUCCUCUUUCACGUGCGCGGGAAAGAGAGAAGUGAACCUGAGAAACACACGUUGUGGUAUAUUACCUGGUA [U20G A39U]
Second: GUCCUCUUUCACGUGCGCGGGAAAGAGAGAAGUGAACCAGGGAAACACACGUUGUGGUAUAUUACCUGGUA [U20G A41G]
The self-cleavage of the first is lower: 0.311 for the first, 0.687 for the second.

Compared with GUCCUCUUUCACGUGCGCGGGAAAGAGAGAAGUGAACCAGAGCAACACACGUUGUGGUAUAUUACCUGGUA [U20G A43C], GUCCUCUUUCACGUGCGCGGGAAAGAGAGAAGUGAACCAGAGGAACACACGUUGUGGUAUAUUACCUGGUA [U20G A43G] is lower in self-cleavage: 0.214 for the first, 0.206 for the second.

Compared with GUCCUCUUUCACGUGCGCGGGAAAGAGAGAAGUGAACCAGAGUAACACACGUUGUGGUAUAUUACCUGGUA [U20G A43U], GUCCUCUUUCACGUGCGCGGGAAAGAGAGAAGUGAACCAGAGACACACACGUUGUGGUAUAUUACCUGGUA [U20G A44C] is lower in self-cleavage: 0.189 for the first, 0.162 for the second.

Going from GUCCUCUUUCACGUGCGCGGGAAAGAGAGAAGUGAACCAGAGAGACACACGUUGUGGUAUAUUACCUGGUA [U20G A44G] to GUCCUCUUUCACGUGCGCGGGAAAGAGAGAAGUGAACCAGAGAACCACACGUUGUGGUAUAUUACCUGGUA [U20G A45C], the self-cleavage rises from 0.143 to 0.16.

Going from GUCCUCUUUCACGUGCGCGGGAAAGAGAGAAGUGAACCAGAGAAACCCACGUUGUGGUAUAUUACCUGGUA [U20G A47C] to GUCCUCUUUCACGUGCGCGGGAAAGAGAGAAGUGAACCAGAGAAACGCACGUUGUGGUAUAUUACCUGGUA [U20G A47G], the self-cleavage falls from 0.299 to 0.0572.
